Reference: the supplement of paper PMC9170038

What follows are sequences tested on MS2 coat protein (assay: apparent KD of MS2 coat protein; higher = weaker reporter binding). Details: Eterna round: R107; input ligand: theophylline 2 mM.
Procedure: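 RNA-MaP round R107: designed RNA switches with theophylline, tryptophan, arginine or FMN aptamers are transcribed on-chip within common flanks. They are titrated with SNAP-549-labelled MS2 coat protein in RNA-MaP buffer (100 mM Tris pH 7.5, 80 mM KCl, 4 mM MgCl2), without ligand or with the indicated ligand. Median apparent KD per design.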

| Sequence | apparent KD of MS2 coat protein |
| --- | --- |
| ACGUAAUGCAGAAGGAGCGUCAUUUUAAAACAUGAGGAUCACCCAUGUAAUAUUUUUGUGUGACAGGUAGGUCGCUGAAGUACGA [JR_SSArginiB_Sub007] | 14.4 nM |
| AAACAACAUGAGGAUCACCCAUGUACCGAUACCAGCCAAAUAUAAGGCCCUUGGCAGCGGAGUAAAUCCGGAGGACAAUGGGUAA [Same State Theophylline A GF5] | 76.9 nM |
| UGUACUAUGUGAAGGAGCGAGAAUCCUACAUGAGGAUCACCCAUGUAACAGCGAAAGCUGACUCAGGUAGGUCGCACAUAGUACU [ArgBS - First try] | 144 nM |
| AAUACCGGAUCGGCCGCCACUGGUUGGCCCUGUGUACAUGAGGAUCACCCAUGUCCAUCCCAGACCAGGACCGGGAUCUUUGUGU [Ingeraza] | 18.5 nM |
| UAUCGUCAGACGGCCGCCACUAGAACAUGAGGAUCACCCAUGUACGGCCGCCCGGUAUGGGUGUCUAGGACCGGGUCUGACGAAU [(Trp1)-(Ms2)-(T)'-(M)'-(Trp2)_Design21] | 39.8 nM |
| GGGUAAGAUCCGGAUACCAGCGAACAUGAGGAUCACCCAUGUGAAAUAAGAUAGACUAAACGCCCUUGGCAGCCGAAAUAGCGUU [Same State Theophylline B GF 4] | 48.9 nM |
| CCGACGAUGACCAAAGGUCAGGAGUGCGCACGAGGACCGGUACGGCCGCCACUCGAGGAGUGGGACAUGAGGAUCACCCAUGUAA [X-TryptA-ms2@65-1] | 20.6 nM |
| AUAAUAAAGACGGCCGCCACUAUAAACAUGAGGAACAUGAGGAUCACCCAUGUAUGAGGAUCACCUAGGACCGGGUCAAAUAUUA [AstrosExyTryB#3] | 45.9 nM |
| CGCGAGACGGCGGCCGCCACUUGUUGUUGGAAACUCGAGUUACAUGAGGAUCACCCAUGUCCUUAAAGGACCGGGCCGUAAGUAA [theeternabot_sameState_MS2_Trp_B_13] | 219 nM |
| CAAAGUUCGUCUCUGGUCCUCUAAUCGGCUCGAGGACCGGUACGGCCGCCACUCGCCCGACAUGAGGAUCACCCAUGUCUGUAAA [Dilaanis] | 16.8 nM |

Same assay, conditions: Eterna round: R107; input ligand: tryptophan 2.4 mM

| Sequence | apparent KD of MS2 coat protein |
| --- | --- |
| AACAUGAGGAUCACCCAUGUUUUAUGGGAUACCAGAGACGAAAGUCUCCCUUGGCAGCCCAAGCUGCUCCAUACGAAAGUAUGGU [Theophylline A 17] | 16.6 nM |
| GGAUAGAUAGGAGAUACCAGAUACAUAAACAUGAGGAUCACCCAUGUGUCUGCACUAAGUAUCCCUUGGCAGCUCGGAGAUCUGA [#17 Same State - Theophylline B] | 18.5 nM |
| CAUAUAUAUUGAAGGAGCGUCGAAAAUGGGUAAACAUGAGGAUCACCCAUGUAAAGGGAACGACAGGUAGGUCGCAAUAUAUAUG [AstromonsSSArgB#4] | 146 nM |
| GACCGGUUAUAGUGCGAUUGUCUUGUGGAAGGAGCGCAGAGGACUGCAGGUAGGUCGCCACAUGAGGAUCACCCAUGUCAGGAUA [Tirevete] | 22.3 nM |
| UAUCCACAUGAGGAUCACCCAUGUAGGGAAGGAGCGGUGGUUUCACCAGGUAGGUCGCCUUACUGAGGAGAACCGGUGGAAUCGU [Exclusion - Arginine A (Freestyle 29)] | 42.6 nM |
| GUAAUUAUAAGAAGGAGCGUCGAAAAUGGGUAAACAUGAGGAUCACCCAUGUAAAGGGAACGACAGGUAGGUCGCUUAUGGUUAC [AstromonsSSArgB#24] | 214 nM |
| UCGGGUUUGCGAAGGAGCGGGUAUGUUUUCUAGUGGAUCCUAACAUGAGGAUCACCCAUGUCCCAGGUAGGUCGCGCGGGUUUGG [12.W] | 100 nM |
| UAUCCACAUGAGGAUCACCCAUGUUAGGAAGGAGCGGUGAAUGCACCAGGUAGGUCGCCUAGCUGAGGACUGUCGAUGGAUUCGU [Exclusion - Arginine A (Freestyle 18)] | 26 nM |
| GGACUAACCAGAAGGAGCGGCACGCAGAAACUGCAAAUUCCUCCGCACGAGGAUCACCCGUGUCAGGUAGGUCGCUGGUUAGUCG [ArgBX 28] | 22.6 nM |
| CGGUGUAGGGUUAAUAGGCUGAGUACAGAAGGAGCGCGAAUAAACGCAGGUAGGUCGCUGGCGAACAUGAGGAUCACCCAUGUAU [Same State Arginine A GF 30] | 15.9 nM |
| AAGACGGUCGGAAGGAGCGGUACAUGAGGAUCACCCAUGUACUCCUGGGCAUCCGUAGUGUGCCAGGUAGGUCGCCGAUUGCGGG [XArg-B14] | 15.3 nM |
| GGGUGUGAUCCGGAUACCAGCGAACAUGAGGAUCACCCAUGUGACCUGAGAUCGGCUCUACGCCCUUGGCAGCCGCGAUCGCAGG [Same State Theophylline B GF12] | 13.1 nM |
| AGAAUGUAAUAUGGCAAAGUUAUAACCGAAGGAGCGCCGAAUAAGGCAGGUAGGUCGCGGAAACAUGAGGAUCACCCAUGUCCAU [Arginine A Same State; Euphoria Solution 3] | 18 nM |
| AAACAUGAGGAUCACCCAUGUGGAACCGAAGGAGCGGCGCACAUGCCAGGUAGGUCGCGGGACAUGAGGACAUGAGGAUCACCCA [Same State Arginine A 3] | 134 nM |
| AAUUCCUCACAUGAGGAUCACCCAUGUGAAGGAGCGCCGAAUAAGGCAGGUAGGUCGCACAUGGAAACCGCUACGAAAGUAGCAA | 21.3 nM |
| ACGACAUGAGGAUCACCCAUGUAAGGUGAUACCAGACGAAGUAAUGUCCCUUGGCAGCACACGCAUAGUUGCGAUUAUUGUACGA [JR_SSTheophyA_Sub007] | 572 nM |
| AAGUAAACAUGAGCAAAGCUCAUGUGCGAAGGAGCGGCGGAAACGCCAGGUAGGUCGCGCACAUGAGCAUCAGCCAUGUGUGUCA [Omei Arginine B SS A v1] | 52.9 nM |
| UCCAUCGGCGGAAGCCGAUGGUUUACAGAAGGAGCGUGGAUUAACACAGGUAGGUCGCUGGACAUGAGGAUCACCCAUGUGAUAG [SSAA #6] | 55 nM |
| AUACGGCGGUAAAAUCAGAGAGUAAAAGAUACCAGCAAUAAUAAAUGCCCUUGGCAGCUUCUGACAUGAGGAUCACCCAUGUAAA [theeternabot_exclusion_MS2_Theo_A_49] | 15 nM |
| UGACAUUGCUCAGAUACCAGACAUGAGGAUCACCCAUGUACCGAGGUACCCGAAAGGAAUGUCCCUUGGCAGCUGAGCAAUGUCU [TheoBX 4 #MS2Left #Theo2 #StaticStem] | 11 nM |
| UAAAAUAAAAGGGUGAAGGUAUAAACAGAUACCAGCCAGAUAACUGGCCCUUGGCAGCUGAAUGACAUGAGGAUCACCCAUGUCU [TheoAS 21 #OpenEnded #Ms2Late] | 14.5 nM |
| GACGCAUGAGUUGUAACAGCUCAUGGGUCGCGAGGACCGGUACGGCCGCCACUCGGCUGUACAUGAGGAUCACCCAUGUCAGGGU [#1 Same State - Tryptophan A Attempt #29 (HarryS)] | 451 nM |
| ACGUAAUGCAGAAGGAGCGUCAUUUUAAAACAUGAGGAUCACCCAUGUAAUAUUUUUGUGUGACAGGUAGGUCGCUGAAGUACGA [JR_SSArginiB_Sub007] | 11.8 nM |
| AAACAACAUGAGGAUCACCCAUGUACCGAUACCAGCCAAAUAUAAGGCCCUUGGCAGCGGAGUAAAUCCGGAGGACAAUGGGUAA [Same State Theophylline A GF5] | 28.3 nM |
| UGUACUAUGUGAAGGAGCGAGAAUCCUACAUGAGGAUCACCCAUGUAACAGCGAAAGCUGACUCAGGUAGGUCGCACAUAGUACU [ArgBS - First try] | 128 nM |
| AAAUAAAUCACAUGAGGAUCACCCAUGGAUACCAGGCCUGGAAACAGCCCUUGGCAGCCACAUGAGGAUCACCCAUGUGCUAAUA [MAT - Exclusion Theophlline A - Mod of Eli - D1] | 152 nM |
| AGUGUUAUAACUGAUACCAGACUCUCAUGUUUACAUGAGGAUCACCCAUGUUAUUUCUUUGUCCCUUGGCAGCAGAAUUUACACA [JR_SSTheophyB_Sub009] | 343 nM |
| GGGUAAGAUCCGGAUACCAGCGAACAUGAGGAUCACCCAUGUGAAAUAAGAUAGACUAAACGCCCUUGGCAGCCGAAAUAGCGUU [Same State Theophylline B GF 4] | 44.1 nM |
| CCGACGAUGACCAAAGGUCAGGAGUGCGCACGAGGACCGGUACGGCCGCCACUCGAGGAGUGGGACAUGAGGAUCACCCAUGUAA [X-TryptA-ms2@65-1] | 21.8 nM |
| AUAAUAAAGACGGCCGCCACUAUAAACAUGAGGAACAUGAGGAUCACCCAUGUAUGAGGAUCACCUAGGACCGGGUCAAAUAUUA [AstrosExyTryB#3] | 44.7 nM |
